Experiment: Viscosity measurement and state of medium composition (E type viscometer)
Assay type: physicochemical
Description: Deacylated gellan gum (KELCOGEL CG-LA, manufactured by SANSHO Co., Ltd.) was suspended in pure water to 0.4% (w/v), and dissolved by stirring with heating at 90° C. This aqueous solution was allowed to cool to room temperature with stirring, and sterilized at 121° C. for 20 min in an autoclave. A 2-fold concentration of DMEM/F-12 medium (manufactured by Aldrich, 50 mL) and sterilization water (47.5 mL) were placed in a 300 mL tall beaker with stirring by a homomixer (3000 rpm) at room temperature, aqueous deacylated gellan gum solution (2.5 mL) was added, and the mixture was continuously stirred for 1 min to prepare a deacylated gellan gum medium composition with a final concentration of 0.01%. Medium compositions added with aqueous deacylated gellan gum solution with final concentrations of 0.02, 0.03 and 0.05% (w/v) were similarly prepared. The viscosity of the medium compositions was measured using an E type viscometer (manufactured by Toki Sangyo Co., Ltd., Viscometer TVE-22 L, standard roter 1°34′×R24) under 37° C. condition at 100 rpm for 5 min.
The medium compositions prepared above were subjected to a suspension test of HeLa cell spheres and a viscosity measurement, in the same manner as with the deacylated gellan gum-containing medium. The viscosity of 1.0% (w/v) methylcellulose was measured at 50 rpm due to the measurement range of the apparatus.
In the same manner as in Reference Experimental Example 2, spheres of HeLa cells were formed, and several tens of the spheres were added to each medium (1 mL) prepared above, the mixture was stood still at 37° C. for 1 hr, and the suspended state of the sphere cells was visually observed. […] Furthermore, it was confirmed that addition of an equal amount of the medium to the cell suspension and centrifugation (300 to 400G, for 5 min) thereof result in sedimentation and recovery of the spheres of HeLa cells.
By a method similar to that for the polysaccharide mixture of Reference Experimental Example 9, DMEM/F-12 media containing deacylated gellan gum at a final concentration of 0.005, 0.01% (w/v) and other polysaccharide were prepared. The final concentration of polysaccharide was set to 0.1% (w/v) for xanthan gum, sodium alginate, locust bean gum, 0.2% (w/v) for methylcellulose, and 0.05% (w/v) for K-carageenan and diutan gum. The state of each medium composition and the viscosity measured by a method similar to that in Analysis Example 1 are shown in Tables 11-16.

collagen
state (concentration 0.01 %(w/v) in DMEM/F-12): liquid | viscosity (concentration 0.01 %(w/v) in DMEM/F-12, 37° C., 100 rpm): 1.18 mPa · s | state (concentration 0.05 %(w/v) in DMEM/F-12): liquid/solid (gel) | state (concentration 0.1 %(w/v) in DMEM/F-12): solid (gel) | state (concentration 0.2 %(w/v) in DMEM/F-12): solid (gel)

From patent publication US20230383245A1, “CULTURE MEDIUM COMPOSITION” (NISSAN CHEMICAL CORPORATION, priority 2014, published 2023)
